pKd: −log10 of the molar value.
How the values were obtained:
[1] = molecular target: glycocalicin, the carbohydrate-rich extracellular portion of the platelet membrane glycoprotein GPIbα (human) (UniProt P07359); test: binding of whole bacteria to immobilised protein in microtiter wells; as a1, bacteria diluted into DPBS containing 44 mM α-2,3-sialyl (1-thioethyl)galactose, pH 7.5, compared with DPBS alone
[2] = molecular target: glycocalicin (Homo sapiens) (UniProt P07359); conditions: cited from earlier work
glycocalicin (Homo sapiens), sequence (P07359 17-506): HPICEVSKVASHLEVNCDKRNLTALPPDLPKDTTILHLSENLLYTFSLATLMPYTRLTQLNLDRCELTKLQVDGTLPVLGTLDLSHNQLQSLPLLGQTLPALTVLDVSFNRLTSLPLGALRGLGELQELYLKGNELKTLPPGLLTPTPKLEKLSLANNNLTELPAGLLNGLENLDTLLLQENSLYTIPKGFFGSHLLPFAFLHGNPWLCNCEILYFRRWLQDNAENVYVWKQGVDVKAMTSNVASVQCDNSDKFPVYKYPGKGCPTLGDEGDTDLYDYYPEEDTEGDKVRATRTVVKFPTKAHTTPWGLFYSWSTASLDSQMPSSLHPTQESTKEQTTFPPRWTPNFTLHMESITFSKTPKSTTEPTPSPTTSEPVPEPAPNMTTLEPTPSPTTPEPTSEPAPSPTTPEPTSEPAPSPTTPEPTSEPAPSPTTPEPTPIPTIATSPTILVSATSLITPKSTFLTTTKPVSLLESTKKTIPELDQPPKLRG

GspB, sequence (Q939N5 86-3041): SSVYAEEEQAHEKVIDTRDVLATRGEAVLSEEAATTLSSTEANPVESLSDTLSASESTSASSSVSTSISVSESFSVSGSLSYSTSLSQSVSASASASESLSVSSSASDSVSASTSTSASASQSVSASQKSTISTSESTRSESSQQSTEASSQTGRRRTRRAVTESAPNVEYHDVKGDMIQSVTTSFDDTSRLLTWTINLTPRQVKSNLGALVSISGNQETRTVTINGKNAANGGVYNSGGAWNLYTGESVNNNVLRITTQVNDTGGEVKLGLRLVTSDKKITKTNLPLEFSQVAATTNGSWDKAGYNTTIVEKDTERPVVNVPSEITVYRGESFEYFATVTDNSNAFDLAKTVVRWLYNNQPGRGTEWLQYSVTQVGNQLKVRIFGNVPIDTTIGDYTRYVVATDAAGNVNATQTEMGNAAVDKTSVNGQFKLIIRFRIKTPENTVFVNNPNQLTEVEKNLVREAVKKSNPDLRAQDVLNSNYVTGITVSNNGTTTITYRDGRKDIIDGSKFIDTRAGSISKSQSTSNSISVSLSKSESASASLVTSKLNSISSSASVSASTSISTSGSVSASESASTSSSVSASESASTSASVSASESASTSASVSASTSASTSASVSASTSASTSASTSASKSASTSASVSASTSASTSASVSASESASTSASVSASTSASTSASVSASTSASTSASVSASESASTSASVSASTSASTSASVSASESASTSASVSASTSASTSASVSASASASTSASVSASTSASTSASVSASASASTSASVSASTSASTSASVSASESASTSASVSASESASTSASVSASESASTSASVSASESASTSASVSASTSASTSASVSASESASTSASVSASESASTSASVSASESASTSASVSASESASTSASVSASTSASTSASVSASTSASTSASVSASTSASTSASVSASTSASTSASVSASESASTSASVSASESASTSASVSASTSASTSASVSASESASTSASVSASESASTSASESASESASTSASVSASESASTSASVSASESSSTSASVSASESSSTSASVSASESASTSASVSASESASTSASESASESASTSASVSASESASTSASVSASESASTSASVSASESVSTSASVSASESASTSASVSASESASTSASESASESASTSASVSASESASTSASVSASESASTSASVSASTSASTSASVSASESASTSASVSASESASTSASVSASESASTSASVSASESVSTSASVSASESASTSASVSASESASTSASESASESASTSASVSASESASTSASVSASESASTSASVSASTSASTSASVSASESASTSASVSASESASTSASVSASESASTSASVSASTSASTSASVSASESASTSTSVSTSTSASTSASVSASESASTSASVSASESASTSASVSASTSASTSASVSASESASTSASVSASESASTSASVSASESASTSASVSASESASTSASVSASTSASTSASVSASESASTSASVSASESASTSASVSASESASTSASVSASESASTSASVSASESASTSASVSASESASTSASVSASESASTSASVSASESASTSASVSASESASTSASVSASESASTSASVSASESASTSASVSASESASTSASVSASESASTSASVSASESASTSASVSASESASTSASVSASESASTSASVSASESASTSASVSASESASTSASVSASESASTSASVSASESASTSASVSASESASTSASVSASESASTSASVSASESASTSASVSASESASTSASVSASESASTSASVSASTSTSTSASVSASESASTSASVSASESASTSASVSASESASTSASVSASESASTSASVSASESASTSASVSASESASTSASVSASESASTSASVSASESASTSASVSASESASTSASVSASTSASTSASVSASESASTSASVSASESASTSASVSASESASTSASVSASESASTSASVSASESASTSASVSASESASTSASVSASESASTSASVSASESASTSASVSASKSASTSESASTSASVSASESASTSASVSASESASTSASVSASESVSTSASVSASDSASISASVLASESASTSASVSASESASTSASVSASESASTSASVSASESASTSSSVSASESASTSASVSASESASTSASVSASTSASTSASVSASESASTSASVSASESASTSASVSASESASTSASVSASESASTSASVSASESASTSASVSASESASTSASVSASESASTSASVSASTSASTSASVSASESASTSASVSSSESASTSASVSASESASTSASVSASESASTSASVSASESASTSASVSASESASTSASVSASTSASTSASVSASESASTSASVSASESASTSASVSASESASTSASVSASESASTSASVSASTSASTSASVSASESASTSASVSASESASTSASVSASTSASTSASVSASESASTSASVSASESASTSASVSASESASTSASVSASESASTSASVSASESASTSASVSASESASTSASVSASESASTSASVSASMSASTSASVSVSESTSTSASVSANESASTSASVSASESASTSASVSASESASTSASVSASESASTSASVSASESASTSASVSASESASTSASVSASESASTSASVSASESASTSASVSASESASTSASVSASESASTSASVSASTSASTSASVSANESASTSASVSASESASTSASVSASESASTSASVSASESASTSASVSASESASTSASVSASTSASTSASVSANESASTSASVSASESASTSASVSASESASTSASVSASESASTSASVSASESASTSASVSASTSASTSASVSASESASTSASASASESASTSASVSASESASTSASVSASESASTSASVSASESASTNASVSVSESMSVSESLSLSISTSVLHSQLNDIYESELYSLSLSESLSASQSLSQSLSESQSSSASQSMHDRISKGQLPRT
glycocalicin, the carbohydrate-rich extracellular portion of the platelet membrane glycoprotein GPIbα (human), sequence (P07359 17-531): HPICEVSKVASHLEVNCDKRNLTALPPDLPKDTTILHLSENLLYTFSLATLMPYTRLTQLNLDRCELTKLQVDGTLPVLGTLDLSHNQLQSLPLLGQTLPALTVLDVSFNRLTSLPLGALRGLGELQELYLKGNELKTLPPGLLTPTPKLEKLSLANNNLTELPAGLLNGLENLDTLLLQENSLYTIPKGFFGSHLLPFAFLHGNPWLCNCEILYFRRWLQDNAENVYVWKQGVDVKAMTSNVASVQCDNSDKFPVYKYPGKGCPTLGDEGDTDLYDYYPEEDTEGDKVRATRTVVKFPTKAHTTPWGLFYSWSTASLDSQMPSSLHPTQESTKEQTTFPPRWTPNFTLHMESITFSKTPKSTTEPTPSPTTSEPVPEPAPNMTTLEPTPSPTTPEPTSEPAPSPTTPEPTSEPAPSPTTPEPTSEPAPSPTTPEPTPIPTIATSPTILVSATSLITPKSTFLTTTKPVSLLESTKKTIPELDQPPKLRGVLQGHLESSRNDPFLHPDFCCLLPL

Row | Substance | percent reduction of binding by 44 mM α-2,3-sialyl (1-thioethyl)galactose [1] | pKd [2]
1 | GspB of Streptococcus gordonii strain M99, wild type, on the bacterial cell surface, Q939N5 86-3041 (natural protein; carries sialyl-T antigen carbohydrates (sites not stated)) | 90% | 
2 | GspB (from UniProt Q939N5) |  | 7.62

Source: paper PMC3131266
